For one molecule, Kd results are on record in article doi:10.1101/2025.01.09.632086 (2025).

Some targets named below: IscU Y11A (E. coli, UniProt P0ACD4 1-128, Y11A); IscU R15A (E. coli, UniProt P0ACD4 1-128, R15A); IscU I8K (E. coli, UniProt P0ACD4 1-128, I8K).
Common to all, as to test: ITC
On the technique in general: ITC needs no label: the signal is the heat of the interaction.

B1: HscA (natural protein)
chain: MALLQISEPGLSAAPHQRRLAAGIDLGTTNSLVATVRSGQAETLADHEGRHLLPSVVHYQQQGHSVGYDARTNAALDTANTISSVKRLMGRSLADIQQRYPHLPYQFQASENGLPMIETAAGLLNPVRVSADILKALAARATEALAGELDGVVITVPAYFDDAQRQGTKDAARLAGLHVLRLLNEPTAAAIAYGLDSGQEGVIAVYDLGGGTFDISILRLSRGVFEVLATGGDSALGGDDFDHLLADYIREQAGIPDRSDNRVQRELLDAAIAAKIALSDADSVTVNVAGWQGEISREQFNELIAPLVKRTLLACRRALKDAGVEADEVLEVVMVGGSTRVPLVRERVGEFFGRPPLTSIDPDKVVAIGAAIQADILVGNKPDSEMLLLDVIPLSLGLETMGGLVEKVIPRNTTIPVARAQDFTTFKDGQTAMSIHVMQGERELVQDCRSLARFALRGIPALPAGGAHIRVTFQVDADGLLSVTAMEKSTGVEASIQVKPSYGLTDSEIASMIKDSMSYAEQDVKARMLAEQKVEAARVLESLHGALAADAALLSAAERQVIDDAAAHLSEVAQGDDVDAIEQAIKNVDKQTQDFAARRMDQSVRRALKGHSVDEV
Broadly, the Kd is a measure of binding affinity in units of concentration. On to B1, for which the Kd was found to be 2700 nM with IscU Y11A, 2400 nM with IscU R15A and 18.2 µM with IscU I8K.
